Assay results reported in patent publication US6953577B2, “Human methionine aminopeptidase type 3” (Pharmacia Corporation, priority 1999, dated 2005).

Test system: CSCC[C@H](N)C(=O)N[C@@H](C)C(=O)N[C@@H](CO)C(=O)O
Test: purified protein, by the assay type
Details: other: hydrolysis of methionine from MAS peptide substrate; pH 7.5
Procedure: Hydrogen peroxide, produced by the L-amino acid oxidase reaction, was measured by monitoring the formation of resorufin from Amplex Red in a reaction catalyzed by of horseradish peroxidase. […] The reaction was performed in a 96-well plate format at ambient temperature using the following assay buffer: 20 mM HEPES-Na pH 7.5, 100 mM NaCl, 0.1 mM CoCl2 containing 100 μM Amplex Red, 0.15 U/ml L-amino acid oxidase, 0.5 U/ml horseradish peroxidase.
The IC50 values were determined under conditions in which enzyme concentration and reaction time were linear.

Work on “recombinant human MetAP-1 (Homo sapiens)” yielded a Km of 8.5 mM and a kcat of 0.75 s⁻¹.
